Measurements from paper PMC10114367 (Fluids and Barriers of the CNS, 2023).
“Also recorded” adds a separate entry of the source.

Experiments:
[1] = Distribution of ^125I-insulin and ^125I-S961 following ICV delivery; assay type: in vivo, CD-1 mice
Protocol: The scalp was reflected in anesthetized mice and a hole was drilled 1 mm lateral and 0.2 mm posterior to the Bregma. […] Brains were removed between 2 and 60 min later and dissected into regions. […] Weighed brain regions and serum were counted in a gamma counter (Wizard2, Perkin Elmer, Waltham, MA, USA). […] The %Inj was divided by the weight of the region (g/region) or the volume serum measured (ul/serum) to calculate the %Inj/g and %Inj/ml. Pilot studies were performed to identify ventricular injection using this method.

[2] = cited from earlier work
[3] = test system: blood-brain barrier (BBB); experiment: Whole brain vascular space / BBB permeability to ^99mTc-albumin following CNS treatment; assay type: in vivo, CD-1 mice
Protocol: For all radioactive studies, the right jugular vein and left carotid artery were exposed. […] Mice were injected IV with the radioactive tracer 10 min later. […] The whole brain, olfactory bulb, and in some cases the hypothalamus were removed and weighed. […] Each mouse yielded a single serum sample and time-matched brain sample. Exposure time was calculated from the formula:1 [drawing 1] , where Am is the level of radioactivity (CPM) per gram of brain tissue at time (t), Cpt is the level of radioactivity (CPM) per ml arterial serum at time t, Ki (μl/g-min) is the steady-state rate of unidirectional solute influx from blood to brain. Vi (μl/g) is the level of solute in rapid, reversible equilibrium between plasma and brain. Subtracting ratios for ^99mTc-albumin from the corresponding ^125I-insulin brain/serum (B/S) ratio yielded a delta B/S ratio, which corrects the B/S ratio for ^125I-insulin for vascular space. The linear portion of the relation between the delta B/S ratio versus exposure time is represented in the figures and was used to calculate the Ki (μl/g-min) with its standard error term, and the y-intercept determined representing the Vi(μl/g).

[4] = Immunoactive serum insulin measurement (MSD mouse insulin kit) after ICV treatment; assay type: in vivo, CD-1 mice; conditions: male, kit cross reacts with human insulin
Protocol: Whole blood was centrifuged at 3,200xg for 10 min. Serum was collected, aliquoted, and frozen at -80 °C until measurement. […] This kit cross reacts with human insulin.

[5] = target: insulin transport across the blood-brain barrier (BBB); conditions: per mouse; cited from earlier work
Protocol: The average blood volume of a mouse is about 77–80 ml/kg. Given that our male CD-1 mice are approximately 30 g at the time of study, these mice have around 2.4 ml of blood. […] Therefore, while th ...

[6] = test system: insulin transport across the blood-brain barrier (BBB); experiment: ^125I-insulin blood-to-brain BBB pharmacokinetics by multiple-time regression analysis (MTRA) after CNS treatment; assay type: in vivo, CD-1 mice; conditions: for Ki of ^125I-insulin (unidirectional influx blood to brain) / Vi of ^125I-insulin (reversible vascular binding): male mice; for Ki of ^125I-insulin (unidirectional influx blood to brain): MTRA slope ± SE; for Vi of ^125I-insulin (reversible vascular binding): MTRA y-intercept
Protocol: For all radioactive studies, the right jugular vein and left carotid artery were exposed. […] The whole brain, olfactory bulb, and in some cases the hypothalamus were removed and weighed. […] Each mouse yielded a single serum sample and time-matched brain sample. Exposure time was calculated from the formula:1 [drawing 1] , where Cp is the level of radioactivity (CPM) in serum at time (t). […] Vi (μl/g) is the level of solute in rapid, reversible equilibrium between plasma and brain. […] The linear portion of the relation between the delta B/S ratio versus exposure time is represented in the figures and was used to calculate the Ki (μl/g-min) with its standard error term, and the y-intercept determined representing the Vi(μl/g). Regression analyses and other statistical analyses were performed with Prism 9.0 (GraphPad Softward Inc., San Diego, CA, USA). For all MTRA pharmacokinetic studies, the slope of the linear regression lines (Ki), reported with their correlation coefficients (r), and y-intercepts (Vi) were compared statistically using Prism equivalent to an analysis of covariance (ANCOVA). For these studies, the individual data points are presented in the representative Figures. For the regional studies, the regional B/S levels for each sex were reported with their standard error terms and analyzed by a two-way analysis of variance (ANOVA) followed by Tukey's post hoc test when appropriate.

[7] = test system: regional brain vascular space; experiment: Regional ^99mTc-albumin brain/serum ratios (vascular space) following CNS treatment; assay type: in vivo, CD-1 mice; conditions: olfactory bulb; male; 30 min after 1 µg IN insulin
Protocol: For the regional studies, brain and serum were collected at a single time point post central nervous system (CNS) manipulation. For IN studies following ICV delivery, S961 (1 µg in PB) or vehicle was given ICV, and IN ^125I-insulin was immediately administered. 30 min later, brain and serum were collected. […] For IV studies following ICV delivery, S961 (1 µg in PB) or vehicle was given ICV and 10 min later, IV ^125I-insulin and ^99mTc-albumin was injected. For the IV studies, brain and serum were collected 5 min later. Olfactory bulb (OB) and the whole brain dissected into 10 regions were weighed: striatum (St), frontal cortex (FC), hypothalamus (Hy), hippocampus (HC), thalamus (Th), parietal cortex (PC), occipital cortex (OC), cerebellum (CB), midbrain (MB), and pons-medulla (PM). Whole brain (WB) is the summed value from individual regions. The levels of radioactivity in serum (50 µl) and brain samples were counted in a gamma counter (Wizard2, Perkin Elmer, Waltham, MA, USA). %Inj/g for IN distribution and Delta B/S ratios following IV administration were calculated as described above. ^99mTc-albumin B/S ratios are also presented to identify changes in regional vascular space following CNS manipulation.

[8] = olfactory bulb, 1 µg ICV insulin 10 min before IV ^125I-insulin
[9] = olfactory bulb, 1 µg IN insulin 30 min before IV ^125I-insulin
[10] = whole brain, 1 µg ICV insulin 10 min before IV ^125I-insulin

^125I-insulin: human insulin radioactively labeled with ^125I; tracer for BBB transport
amount of ^125I-insulin entering the blood following ICV delivery ([1]; mouse, in vivo): < 3 %Inj/ml | time by which tracer is distributed throughout the brain after ICV delivery ([1]; mouse, in vivo): ≤ 5 min | time to appearance in serum after ICV injection ([1]; mouse, in vivo): ≤ 5 min | ^125I-insulin present in whole brain after IN delivery ([2]; mouse, in vivo): approximately 0.13 %Inj/g | time of peak brain level after IN administration ([2]; mouse, in vivo): about 30 min

human insulin
expected amount per gram of brain tissue after 1 µg ICV administration ([1]; calculated from %Inj/g at 10 min and 1 µg ICV dose): approximately 605 ng per gram of brain tissue | level in whole brain after ICV delivery ([1]; radiolabelled tracer ICV, whole brain at 10 min): approximately 60.5 %Inj/g | effect on whole brain vascular space or BBB leakage measured with ^99mTc-albumin ([3]; 1 µg ICV or IN insulin (males), 1 µg ICV S961 (males, females)): no effect | change in serum insulin level vs vehicle ([4]; 30 min after 1 µg ICV human insulin): nearly doubled; also recorded: two-fold increase | rise in serum insulin level ([4]; 30 min after 1 µg human insulin ICV): 5 ng/mL | insulin present in hypothalamus after IN delivery ([2]; hypothalamus, 30 min after IN insulin delivery, male CD-1 mice): 0.23 %Inj/g | IV bolus of unlabeled insulin necessary to reduce the ^125I-insulin BBB Ki by 50% [5]: 121 ng | Ki of ^125I-insulin (unidirectional influx blood to brain) ([6]; hypothalamus, 1 µg IN insulin 30 min before IV ^125I-insulin, regression ns): 0.57 ± 0.88 µL/g/min | slowing of ^125I-insulin blood-to-brain transport rate vs vehicle ([6]; hypothalamus, male, 1 µg IN insulin, 30 min): about 85% | Ki of ^125I-insulin (unidirectional influx blood to brain) [6, 8]: ~ 0.3 µl/g-min | Ki of ^125I-insulin (unidirectional influx blood to brain) ([6]; olfactory bulb, 1 µg ICV insulin 10 min before IV ^125I-insulin, listed as Insulin): 0.35 ± 0.16 µL/g/min | Vi of ^125I-insulin (reversible vascular binding) [6, 8]: 14.6 ± 2.2 µL/g | Ki of ^125I-insulin (unidirectional influx blood to brain) [6, 9]: 2.74 ± 0.52 µL/g/min | Vi of ^125I-insulin (reversible vascular binding) [6, 9]: 9.7 ± 3.9 µL/g | decrease of ^125I-insulin blood-to-brain transport rate vs vehicle ([6]; olfactory bulb, male, 1 µg ICV insulin, 10 min): about 82% | Ki of ^125I-insulin (unidirectional influx blood to brain) [6, 10]: ~ 0.3 µl/g-min | Ki of ^125I-insulin (unidirectional influx blood to brain) ([6]; whole brain, 1 µg ICV insulin 10 min before IV ^125I-insulin, listed as Insulin): 0.30 ± 0.11 µL/g/min | Vi of ^125I-insulin (reversible vascular binding) [6, 10]: 7.9 ± 1.5 µL/g | increase in ^99mTc-albumin vs vehicle [7]: 43%

^99mTc-albumin: bovine serum albumin labeled with Technetium-99m; marker for vascular space
^99mTc-albumin whole brain B/S ratio ([3]; mouse, in vivo, iv): 8 to 12 µL/g
